This passage reports abundance fitness results from the Human Domainome abundance scans (Beltran et al. 2025).

± gives the uncertainty stated by the source.

Sequences and labels used below:
B1: Receptor-interacting serine/threonine-protein kinase 2, residues 438 to 518; numbered along this chain, O43353 (parent)
chain: QWIQSKREDIVNQMTEACLNQSLDALLSRDLIMKEDYELVSTKPTRTSKVRQLLDTTDIQGEEFAKVIVQKLKDNKQMGLQ

The series covers variants of B1. The series can be described thus: abundance fitness (aPCA) (normalised: wild type 0, dead -1); higher = more abundant; growth selection in yeast, the domain comes from the species named. Particulars: Homo sapiens.
Turning to QWIQSKREDIVNQMTEACLNQSLDALLSRDLIMKEDYELVSTKPTRTSKVRQLLDTTDIQGEEFAKVIVQKLKDNKQIGLQ [M78I], the abundance fitness was -0.372 ± 0.5. On to QWIQSKREDIVNQMTEACLNQSLDALLSRDLIMKEDYELVSTKPTRTSKVRQLLDTTDIQGEEFAKVIVQKLKDNKQMGLH [Q81H], for which the abundance fitness is -0.419 ± 0.19. QWIQSKREDIVNQMTEACLNQSLDALLSRDLIMKEDYELVSTKPTRTSKVRQLLDTTDIQGEEFAKVIVQKLKENKQMGLQ [D74E]: the abundance fitness is -0.085 ± 0.15.

Regarding QWIQSKREDIVNQMTEACLNQSLDALLSRDLIMKEDYELVSTKPTRTSKVRQLLDTTDIQGEEFAKVIVQKLKGNKQMGLQ [D74G], the abundance fitness was -0.336 ± 0.058.

As to QWIQSKREDIVNQMTEACLNQSLDALLSRDLIMKEDYELVSTKPTRTSKVRQLLDTTDIQGEEFAKVIVQKLKYNKQMGLQ [D74Y], the abundance fitness was -0.173 ± 0.26. For the variant QWIQSKREDIVNQMTEACLNQSLDALLSRDLIMKEDYELVSTKPTRTSKVRQLLDTTDIQGEEFAKVIVQKLKWNKQMGLQ [D74W], the abundance fitness is -0.488 ± 0.1.

As to QWIQSKREDIVNQMTEACLNQSLDALLSRDLIMKEDYELVSTKPTRTSKVRQLLDTTDIQGEEFAKVIVQKLKTNKQMGLQ [D74T], the abundance fitness is -0.285 ± 0.09. For QWIQSKREDIVNQMTEACLNQSLDALLSRDLIMKEDYELVSTKPTRTSKVRQLLDTTDIQGEEFAKVIVQKLKMNKQMGLQ [D74M], the abundance fitness was -0.399 ± 0.11.

Consider QWIQSKREDIVNQMTEACLNQSLDALLSRDLIMKEDYELVSTKPTRTSKVRQLLDTTDIQGEEFAKVIVQKLKNNKQMGLQ [D74N], for which the abundance fitness is -0.345 ± 0.29. In the case of QWIQSKREDIVNQMTEACLNQSLDALLSRDLIMKEDYELVSTKPTRTSKVRQLLDTTDIQGEEFAKVIVQKLKKNKQMGLQ [D74K] it was -0.644 ± 0.2; in that of QWIQSKREDIVNQMTEACLNQSLDALLSRDLIMKEDYELVSTKPTRTSKVRQLLDTTDIQGEEFAKVIVQKLKINKQMGLQ [D74I], -0.261 ± 0.069. In the case of QWIQSKREDIVNQMTEACLNQSLDALLSRDLIMKEDYELVSTKPTRTSKVRQLLDTTDIQGEEFAKVIVQKLKQNKQMGLQ [D74Q], the abundance fitness was -0.248 ± 0.11. For the variant QWIQSKREDIVNQMTEACLNQSLDALLSRDLIMKEDYELVSTKPTRTSKVRQLLDTTDIQGEEFAKVIVQKLKCNKQMGLQ [D74C], the abundance fitness was -0.246 ± 0.13. Consider QWIQSKREDIVNQMTEACLNQSLDALLSRDLIMKEDYELVSTKPTRTSKVRQLLDTTDIQGEEFAKVIVQKLKPNKQMGLQ [D74P], for which the abundance fitness was -0.512 ± 0.053. For the variant QWIQSKREDIVNQMTEACLNQSLDALLSRDLIMKEDYELVSTKPTRTSKVRQLLDTTDIQGEEFAKVIVQKLKANKQMGLQ [D74A], the abundance fitness is -0.076 ± 0.07. Consider QWIQSKREDIVNQMTEACLNQSLDALLSRDLIMKEDYELVSTKPTRTSKVRQLLDTTDIQGEEFAKVIVQKLKFNKQMGLQ [D74F], for which the abundance fitness is -0.486 ± 0.14. On to QWIQSKREDIVNQMTEACLNQSLDALLSRDLIMKEDYELVSTKPTRTSKVRQLLDTTDIQGEEFAKVIVQKLKRNKQMGLQ [D74R], for which the abundance fitness was -0.49 ± 0.051. With QWIQSKREDIVNQMTEACLNQSLDALLSRDLIMKEDYELVSTKPTRTSKVRQLLDTTDIQGEEFAKVIVQKLKHNKQMGLQ [D74H] the figure was 0.046 ± 0.096; with QWIQSKREDIVNQMTEACLNQSLDALLSRDLIMKEDYELVSTKPTRTSKVRQLLDTTDIQGEEFAKVIVQKLKSNKQMGLQ [D74S], -0.323 ± 0.07; with QWIQSKREDIVNQMTEACLNQSLDALLSRDLIMKEDYELVSTKPTRTSKVRQLLDTTDIQGEEFAKVIVQKLTDNKQMGLQ [K73T], -0.01 ± 0.075.

With QWIQSKREDIVNQMTEACLNQSLDALLSRDLIMKEDYELVSTKPTRTSKVRQLLDTTDIQGEEFAKVIVQKLYDNKQMGLQ [K73Y], the abundance fitness is -0.039 ± 0.16.

Consider QWIQSKREDIVNQMTEACLNQSLDALLSRDLIMKEDYELVSTKPTRTSKVRQLLDTTDIQGEEFAKVIVQKLSDNKQMGLQ [K73S], for which the abundance fitness was 0.001 ± 0.061.

For QWIQSKREDIVNQMTEACLNQSLDALLSRDLIMKEDYELVSTKPTRTSKVRQLLDTTDIQGEEFAKVIVQKLHDNKQMGLQ [K73H], the abundance fitness is -0.319 ± 0.17. In the case of QWIQSKREDIVNQMTEACLNQSLDALLSRDLIMKEDYELVSTKPTRTSKVRQLLDTTDIQGEEFAKVIVQKLQDNKQMGLQ [K73Q], the abundance fitness was -0.003 ± 0.076. As to QWIQSKREDIVNQMTEACLNQSLDALLSRDLIMKEDYELVSTKPTRTSKVRQLLDTTDIQGEEFAKVIVQKLRDNKQMGLQ [K73R], the abundance fitness worked out at 0.011 ± 0.051.

For QWIQSKREDIVNQMTEACLNQSLDALLSRDLIMKEDYELVSTKPTRTSKVRQLLDTTDIQGEEFAKVIVQKLPDNKQMGLQ [K73P], the abundance fitness is -0.633 ± 0.071. For QWIQSKREDIVNQMTEACLNQSLDALLSRDLIMKEDYELVSTKPTRTSKVRQLLDTTDIQGEEFAKVIVQKLNDNKQMGLQ [K73N], the abundance fitness is -0.191 ± 0.22. With QWIQSKREDIVNQMTEACLNQSLDALLSRDLIMKEDYELVSTKPTRTSKVRQLLDTTDIQGEEFAKVIVQKLLDNKQMGLQ [K73L], the abundance fitness is -0.064 ± 0.053. For QWIQSKREDIVNQMTEACLNQSLDALLSRDLIMKEDYELVSTKPTRTSKVRQLLDTTDIQGEEFAKVIVQKLMDNKQMGLQ [K73M], the abundance fitness is -0.107 ± 0.093.

Consider QWIQSKREDIVNQMTEACLNQSLDALLSRDLIMKEDYELVSTKPTRTSKVRQLLDTTDIQGEEFAKVIVQKLVDNKQMGLQ [K73V], for which the abundance fitness was -0.191 ± 0.057. In the case of QWIQSKREDIVNQMTEACLNQSLDALLSRDLIMKEDYELVSTKPTRTSKVRQLLDTTDIQGEEFAKVIVQKLKDNKHMGLQ [Q77H], the abundance fitness was -0.137 ± 0.4. In the case of QWIQSKREDIVNQMTEACLNQSLDALLSRDLIMKEDYELVSTKPTRTSKVRQLLDTTDIQGEEFAKVIVQKLKDLKQMGLQ [N75L] it was -0.135 ± 0.054; in that of QWIQSKREDIVNQMTEACLNQSLDALLSRDLIMKEDYELVSTKPTRTSKVRQLLDTTDIQGEEFAKVIVQKLKDFKQMGLQ [N75F], -0.431 ± 0.16; in that of QWIQSKREDIVNQMTEACLNQSLDALLSRDLIMKEDYELVSTKPTRTSKVRQLLDTTDIQGEEFAKVIVQKLKDWKQMGLQ [N75W], -0.244 ± 0.083.
